Test results as given in publication PMC10899256, “TBC1D23 mediates Golgi-specific LKB1 signaling” (Nature Communications, 2024).

How the values were obtained:
[1] = biological target: T1, purified GST-TBC1D23 PH domain (545–684) (human, UniProt Q9NUY8-2 545-684); assay: pull-down; recombinant proteins: MBP or MBP-tagged LKB1 CRD-LFa held, purified GST-TBC1D23 PH as prey; same procedure as for GST-tagged proteins (50 mM Tris pH 8.0, 500 mM NaCl, 0.05% Triton X-100, 4 °C 1 h); details: both partners purified
T1 construct: also called purified TBC1D23 PH

[2] = biological target: T2, purified TBC1D23 PH domain (545–684) (human, UniProt Q9NUY8-2 545-684); assay: ITC; LKB1-LFa motif peptides (1.0 mM) titrated into TBC1D23 PH domain (50 µM) at 25 °C; 100 mM Tris pH 8.0, 500 mM NaCl, 5% v/v glycerol; details: both partners purified
T2 construct: Used as prey for GST-tagged baits on glutathione beads and in ITC, so the GST was probably removed
T2 sequence (Q9NUY8 560-699): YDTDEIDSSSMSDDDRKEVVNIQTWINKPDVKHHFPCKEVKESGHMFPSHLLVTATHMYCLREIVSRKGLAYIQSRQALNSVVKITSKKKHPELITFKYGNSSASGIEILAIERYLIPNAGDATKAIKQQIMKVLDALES

T1 sequence (Q9NUY8 560-699): as above

| Binder | binding result [1] | fold by which the affinity of LKB1 WT is higher [2] | also measured |
| --- | --- | --- | --- |
| MBP-LKB1 CRD-LFa WT (domain or fragment, human, UniProt Q15831 347-433, looked up, LKB1 (STK11) CRD, residues 347–433; also called LKB1 WT; LKB1 CRD (347–433)) ADEDEDLFDIEDDIIYTQDFTVPGQVPEEEASHNGQRRGLPKAVCMNGTEAAQLSTKSRAEGRAPNPARKACSASSKIRRLSACKQQ | binds | – | – |
| MBP-LKB1 CRD-LFa F354L (domain or fragment, human, UniProt Q15831 347-433, looked up, LKB1 (STK11) CRD, residues 347–433, with F354L (reported in Peutz–Jeghers patients, present in gnomAD); also called LKB1 F354L) ADEDEDLLDIEDDIIYTQDFTVPGQVPEEEASHNGQRRGLPKAVCMNGTEAAQLSTKSRAEGRAPNPARKACSASSKIRRLSACKQQ | binds | – | – |
| MBP-LKB1 CRD-LFa F354A (domain or fragment, human, UniProt Q15831 347-433, looked up, LKB1 (STK11) CRD, residues 347–433, with F354A; also called LKB1 F354A) ADEDEDLADIEDDIIYTQDFTVPGQVPEEEASHNGQRRGLPKAVCMNGTEAAQLSTKSRAEGRAPNPARKACSASSKIRRLSACKQQ | binds | – | – |
| GADEDEDLFDIEDDIIYTQD (LKB1 (STK11) LFa motif peptide; also called LKB1-LFa motif peptide; LKB1-LFa WT) [LKB1 LFa peptide WT] | – | – | Ka [2]: 1.25e+06 M⁻¹; Kd [2]: 800 nM; stoichiometry N [2]: 1 |
| GADEDEDLADIEDDIIYTQD (LKB1 (STK11) LFa motif peptide with F354A; also called LKB1 F354A; LKB1-LFa mutants) [LKB1 LFa peptide F354A] | – | ~3 fold | – |
| GADEDEDLLDIEDDIIYTQD (LKB1 (STK11) LFa motif peptide with F354L, a mutation reported in Peutz–Jeghers patients and present in gnomAD; also called LKB1 F354L; LKB1-LFa mutants) [LKB1 LFa peptide F354L] | – | ~3 fold | – |
